Where a chain is given by its changes, count along the chain named. Starred links: 1 amine or outer side, 2 acyl side, 3 side chain; linkers in the order of their positions; H or OH if unused. Non-standard residues stand in square brackets, D forms with d. Groups on a side chain read outwards from the residue. Primed or numbered codes have the meaning given here. No end group written: not given here. *: point of attachment. C20 diacid = O=C(O)CCCCCCCCCCCCCCCCCCC(=O)*; C18 diacid = O=C(O)CCCCCCCCCCCCCCCCC(=O)*; d(βAsp) = O=C(O)[C@@H](CC(=O)[*:2])N[*:1]; γGlu = O=C(O)[C@H](CCC(=O)[*:2])N[*:1]; 2Nal = N[C@@H](Cc1ccc2ccccc2c1)C(=O)O; Desaminohistidyl = O=C(CCc1c[nH]cn1)*; Trx = NC[C@H]1CC[C@H](C(=O)O)CC1; Trx′ = not defined here; AEEA = NCCOCCOCC(=O)O; Aib = CC(C)(N)C(=O)O; Inp = O=C(O)C1CCNCC1; Bn = c1ccc(C*)cc1
B1: N-epsilon37-[2-(2-{2-[2-(2-{2-[(S)-4-Carboxy-4-({trans-4-[(19-carboxy-nonadecanoylamino)methyl]cyclohexanecarbonyl}amino)butyrylamino]ethoxy}ethoxy)acetylamino] … (peptide)
peptide: H[Aib]EGTFTSDVSSYLEEQAAREFIAWLVRGRK([AEEA-AEEA-γGlu-Trx-C20 diacid])-NH2
B2: [ImPr^7,Arg^26,34,Glu^22]GLP-1-(7-37)Lys[2-(2-[2-((S)-4-((S)-4-(12-[4-(16-1H-tetrazol-5-ylhexadecanoylsulfamoyl)butyrylamino]dodecanoylamino)-4-carboxybutyrylam … (peptide)
peptide: HAEGTFTSDVSSYLEEQAAREFIAWLVRGRGK
modifications: ImPr7 (imidazopropionic acid = des-amino-histidine); the added C-terminal Lys carries the acyl side chain printed in the name; C-terminal amide
B3: [Aib8,Glu22,Arg26,Glu30,Pro37]GLP-1-((7-37)Lys … (peptide)
peptide: H[Aib]EGTFTSDVSSYLEEQAAREFIEWLVKGRPK
modifications: not fully specified (residue 32); printed as [Aib8,Glu22,Arg26,Glu30,Pro37]GLP-1-(7-37)Lys (2-(2-(3-(2-(2-(2-(2-(2-(2-(2-(2-(2-(2-(2-(2-[4-(S)-carboxy-4-(4-(S)-carboxy-4-(4-{4-[16-(Tetrazol-5-yl)hexadecanoylsulfamoyl]butanoylamino}butanoylamino) butyrylamino)butyrylamino]ethoxy)ethoxy)ethoxy)ethoxy)ethoxy)ethoxy)ethoxy)ethoxy)ethoxy)ethoxy)ethoxy)ethoxy) propionylamino)ethoxy)ethoxy) peptide
B4: [desaminoHis^7,Arg^26,Arg^34]GLP-1-(7-37)Lys[2-(2-[2-(2-[2-(2-((R)-3-[trans-4-((9-Carboxynonadecanoylamino]methyl)cyclohexylcarbonylamino]3-carboxypropionylamin … (peptide)
peptide: [Desaminohistidyl]AEGTFTSDVSSYLEGQAAREFIAWLVRGRGK-NH2
modifications: not fully specified (residue 32); printed as [desaminoHis^7,Arg^26,Arg^34]GLP-1-(7-37)Lys[2-(2-[2-(2-[2-(2-((R)-3-[trans-4-((9-Carboxynonadecanoylamino]methyl)cyclohexylcarbonylamino]3-carboxypropionylamino)ethoxy)ethoxy]acetylamino)ethoxy]ethoxy)acetyl]amide
B5: [DesaminoHis7,Arg26,34]-GLP-1 … (peptide)
peptide: [Desaminohistidyl]AEGTFTSDVSSYLEGQAAREFIAWLVRGRGK([AEEA-AEEA-γGlu-Inp-C20 diacid])
B6: [Aib8,Glu22,Arg26,Glu30,Pro37]GLP-1-(7-37)Lys … (peptide)
peptide: B2 peptide with A24E, R28K, G31P
modifications: Aib8; the added C-terminal Lys carries the acyl side chain printed in the name
B7: [DesaminoHis7,Glu22,Arg26,Arg34]GLP-1-(7-37)Lys[2-(2-{2-[2-(2-{2-[4-Carboxy-4-({trans-4-[(19-carboxy-nonadecanoylamino)methyl]cyclohexanecarbonyl}amino)butyryla … (peptide)
peptide: [Desaminohistidyl]AEGTFTSDVSSYLEEQAAREFIAWLVRGRGK([AEEA-AEEA-γGlu-Trx-C20 diacid])-NH2
SMILES: CC[C@H](C)[C@H](NC(=O)[C@H](Cc1ccccc1)NC(=O)[C@H](CCC(=O)O)NC(=O)[C@H](CCCNC(=N)N)NC(=O)[C@H](C)NC(=O)[C@H](C)NC(=O)[C@H](CCC(N)=O)NC(=O)[C@H](CCC(=O)O)NC(=O)[C@H](CCC(=O)O)NC(=O)[C@H](CC(C)C)NC(=O)[C@H](Cc1ccc(O)cc1)NC(=O)[C@H](CO)NC(=O)[C@H](CO)NC(=O)[C@@H](NC(=O)[C@H](CC(=O)O)NC(=O)[C@H](CO)NC(=O)[C@@H](NC(=O)[C@H](Cc1ccccc1)NC(=O)[C@@H](NC(=O)CNC(=O)[C@H](CCC(=O)O)NC(=O)[C@H](C)NC(=O)CCc1c[nH]cn1)[C@@H](C)O)[C@@H](C)O)C(C)C)C(=O)N[C@@H](C)C(=O)N[C@@H](Cc1c[nH]c2ccccc12)C(=O)N[C@@H](CC(C)C)C(=O)N[C@H](C(=O)N[C@@H](CCCNC(=N)N)C(=O)NCC(=O)N[C@@H](CCCNC(=N)N)C(=O)NCC(=O)N[C@@H](CCCCNC(=O)COCCOCCNC(=O)COCCOCCNC(=O)CC[C@H](NC(=O)[C@H]1CC[C@H](CNC(=O)CCCCCCCCCCCCCCCCCCC(=O)O)CC1)C(=O)O)C(N)=O)C(C)C
B8: N-epsilon37{2-[2-(2-{2-[2-((S)-3-carboxy-3-{[1-(19-carboxynonadecanoyl)piperidine-4-carbonyl]amino}propionylamino)ethoxy]ethoxy}acetylamino)ethoxy]ethoxy}acetyl … (peptide)
peptide: H[Aib]EGTFTSDVSSYLEEQAAREFIAWLVRGRK-NH2
modifications: not fully specified (residue 31); printed as N-epsilon37{2-[2-(2-{2-[2-((S)-3-carboxy-3-{[1-(19-carboxynonadecanoyl)piperidine-4-carbonyl]amino}propionylamino)ethoxy]ethoxy}acetylamino)ethoxy]ethoxy}acetyl [Aib8,Glu22,Arg26,Arg34,Lys37]GLP-1-(7-37)amide
B9: N-epsilon26-[2-(2-{2-[(S)-4-Carboxy-4-((S)-4-carboxy-4-{12-[4-(16-(1H-tetrazol-5-yl)hexadecanoylsulfamoyl)butyrylamino]dodecanoylamino}butyrylamino)butyrylamino … (peptide)
peptide: HAEGTFTSDVSSYLEGQAAKEFIAWLKR
modifications: Aib8; N-epsilon26 (so in the source) carries the acyl side chain printed in the name
notes: GLP-1-(7-34) = residues 1-28 of the entry
B10: N-alpha8-[2-(4-imidazolyl)acetyl] … (peptide)
peptide: {2‑(4-imidazolyl)acetyl}-AEGTFTSDVSSYLEEQAAREFIAWLVRGRK([AEEA-AEEA-γGlu-Trx′-C20 diacid])
modifications: reading uncertain; also: printed as N-alpha8-[2-(4-imidazolyl)acetyl] N-epsilon37-[2-(2-{2-[2-(2-{2-[(S)-4-Carboxy-4-({trans-4-[(19-carboxynonadecanoylamino)methyl]cyclohexanecarbonyl}amino)butyrylamino]ethoxy}ethoxy)acetylamino]ethoxy}ethoxy)acetyl][Glu22,Arg26,Arg34,Lys37]GLP-1-(8-37)
notes: GLP-1-(8-37) = residues 2-31 of the entry
B11: N-alpha37-[2-(2-{2-[2-(2-{2-[(S)-4-Carboxy-4-({trans-4-[(19-carboxynonadecanoylamino)methyl]cyclohexanecarbonyl}amino)butyrylamino]ethoxy}ethoxy)acetylamino]eth … (peptide)
peptide: HAEGTFTSDVSSYLEEQAAREFIAWLVRGRK
modifications: desaminoHis7; Lys37 is bound to the peptide via its epsilon amino group (epsilon-Lys37); its N-alpha carries the acyl side chain printed in the name
B12: N-epsilon37-[2-(2-{2-[2-(2-{2-[(S)-4-Carboxy-4-({trans-4-[(19-carboxynonadecanoylamino)methyl]cyclohexanecarbonyl}amino)butyrylamino]ethoxy}ethoxy)acetylamino]e … (peptide)
peptide: B11 peptide
modifications: Aib8; Lys37 N-epsilon carries the acyl side chain printed in the name
B13: N-epsilon37-[2-(2-{2-[(S)-4-Carboxy-4-((S)-4-carboxy-4-{12-[4-(16-(1H-tetrazol-5-yl)hexadecanoylsulfamoyl)butyrylamino]dodecanoylamino}butyrylamino)butyrylamino … (peptide)
peptide: B11 peptide
modifications: Aib8; Lys37 N-epsilon carries the acyl side chain printed in the name; C-terminal amide
B14: N-epsilon20-[2-(2-{2-[(S)-4-Carboxy-4-((S)-4-carboxy-4-{12-[4-(16-(1H-tetrazol-5-yl)hexadecanoylsulfamoyl)butyrylamino]dodecanoylamino}butyrylamino)butyrylamino … (peptide)
peptide: HAEGTFTSDVSSYKEEQAAREFIEWLVKGRP
modifications: Aib8; Lys20 N-epsilon carries the acyl side chain printed in the name; C-terminal amide
B15: N-epsilon … (peptide)
peptide: HAEGTFTSDVSKYLEEQAAKEFIAWLVQGRG
modifications: not fully specified; Aib8; Lys18 N-epsilon carries the acyl side chain printed in the name
B16: N-epsilon … (peptide)
peptide: H[Aib]EGTFTSDVSKYLE[Aib]QAAREFIAWLVR[Aib]RG
modifications: not fully specified (residue 12); printed as N-epsilon 18-[2-(2-[2-(2-[2-(2-((R)-3-[trans-4-((9-Carboxynonadecanoylamino]methyl)cyclohexylcarbonylamino]3-carboxypropionylamino)ethoxy)ethoxy]acetylamino)ethoxy]ethoxy)acetyl][Aib8, 22,35, Lys18, Arg26,34]GLP-1-(7-37)
B17: N-epsilon31{2-[2-(2-{2-[2-((S)-3-carboxy-3-{[1-(19-carboxynonadecanoyl)piperidine-4-carbonyl]amino}propionylamino)ethoxy]ethoxy}acetylamino)ethoxy]ethoxy}acetyl … (peptide)
peptide: H[Aib]EGTFTSDVSSYLEEQAAREFIAKLVKGRG
modifications: not fully specified (residue 25); printed as N-epsilon31{2-[2-(2-{2-[2-((S)-3-carboxy-3-{[1-(19-carboxynonadecanoyl)piperidine-4-carbonyl]amino}propionylamino)ethoxy]ethoxy}acetylamino)ethoxy]ethoxy}acetyl [Aib8, Glu22, Arg26,Lys 31]GLP-1-(7-37)
B18: N-epsilon30{2-[2-(2-{2-[2-((S)-3-carboxy-3-{[1-(19-carboxynonadecanoyl)piperidine-4-carbonyl]amino}propionylamino)ethoxy]ethoxy}acetylamino)ethoxy]ethoxy}acetyl … (peptide)
peptide: H[Aib]EGTFTSDVSSYLEEQAAREFIKWLVKGRG
modifications: not fully specified (residue 24); printed as N-epsilon30{2-[2-(2-{2-[2-((S)-3-carboxy-3-{[1-(19-carboxynonadecanoyl)piperidine-4-carbonyl]amino}propionylamino)ethoxy]ethoxy}acetylamino)ethoxy]ethoxy}acetyl [Aib8,Glu22,Arg26,Lys30]GLP-1-(7-37)
B19: N-epsilon26-[2-(2-[2-(2-[2-(2-((R)-3-[trans-4-((9-Carboxynonadecanoylamino]methyl)cyclohexylcarbonylamino]3-carboxypropionylamino)ethoxy)ethoxy]acetylamino)etho … (peptide)
peptide: H[Aib]EGTFTSDVSSYLEEQAAKEFIAWLVQGRG
modifications: not fully specified (residue 20); printed as N-epsilon26-[2-(2-[2-(2-[2-(2-((R)-3-[trans-4-((9-Carboxynonadecanoylamino]methyl)cyclohexylcarbonylamino]3-carboxypropionylamino)ethoxy)ethoxy]acetylamino)ethoxy]ethoxy)acetyl][Aib8, Glu22, Gln34]GLP-1-(7-37)
B20: N-ε^20({2-[2-(2-{2-[2-((R)-3-carboxy-3-{[1-(17-carboxyheptadecanoyl)piperidine-4-carbonyl]amino}propionylamino)ethoxy]ethoxy}acetylamino)ethoxy]ethoxy}acetyl) … (peptide)
peptide: H[Aib]EGTFTSDVSSYK([AEEA-AEEA-d(βAsp)-Inp-C18 diacid])EGQAAREFIEWLT(Bn)KGRG-NH2
modifications: not fully specified; printed as N-ε^20({2-[2-(2-{2-[2-((R)-3-carboxy-3-{[1-(17-carboxyheptadecanoyl)piperidine-4-carbonyl]amino}propionylamino)ethoxy]ethoxy}acetylamino)ethoxy]ethoxy}acetyl) [Aib^8,Lys^20,Arg^28,Glu^30,Thr(O-benzyl)^33,]GLP-1-(7-37)amide
notes: Arg26 used; also called [Aib^8,Lys^20,Arg^26,Glu^30,Thr(O-benzyl)^33,]GLP-1-(7-37)amide derivative
B21: N-ε^20({2-[2-(2-{2-[2-((R)-3-carboxy-3-{[1-(17-carboxyheptadecanoyl)piperidine-4-carbon yl]amino}propionylamino)ethoxy]ethoxy}acetylamino)ethoxy]ethoxy}acetyl) … (peptide)
peptide: H[Aib]EGTFTSDVSSYK([AEEA-AEEA-d(βAsp)-Inp-C18 diacid])EGQAARE[2Nal]IEWLVKGRG-NH2
B22: N-ε^20({2-[2-(2-{2-[2-((R)-3-carboxy-3-{[1-(17-carboxyheptadecanoyl)piperidine-4-carbon yl]amino}propionylamino)ethoxy]ethoxy}acetylamino)ethoxy]ethoxy}acetyl) … (peptide)
peptide: H[Aib]EGT[2Nal]TSDVSSYK([AEEA-AEEA-d(βAsp)-Inp-C18 diacid])EGQAAREFIEWLVKGRG-NH2
B23: N-epsilon31-(2-{2-[2-(2-{2-[2-((S)-3-Carboxy-3-{[1-(19-carboxy-nonadecanoyl)piperidine-4-carbonyl]amino}propionylamino)ethoxy]ethoxy}acetylamino)ethoxy]ethoxy}a … (peptide)
peptide: H[Aib]EGTFTSDVSSYLEEQAAREFIAKLVRGRG
modifications: not fully specified (residue 25); printed as N-epsilon31-(2-{2-[2-(2-{2-[2-((S)-3-Carboxy-3-{[1-(19-carboxy-nonadecanoyl)piperidine-4-carbonyl]amino}propionylamino)ethoxy]ethoxy}acetylamino)ethoxy]ethoxy}acetyl)[Aib8,Glu22,Arg26,Lys31,Arg34]GLP-1-(7-37)

These binders were tested against T1, human serum albumin (HSA) (human, UniProt P02768 25-609, biotinylated) (assay: competition SPA on biotinylated HSA, 125I acylated GLP-1 tracer;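 note: streptavidin SPA beads carrying biotinylated HSA, competition incubated 20 h at room temperature, plates then read on a TopCount counter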).
T1 construct: also called biotinylated HSA
Method: Streptavidin-SPA beads (GE Healthcare RPNQ0009) were incubated with biotinylated HSA for 5 hours. The beads were washed with buffer to remove unbound HSA. […] After 20 hours of gentle rocking at room temperature the plates were centrifuged and counted on a TopCounter.

Row | EC50 [nM] | Binder
1 | 800 to 2000 | B1
2 | 1 to 100 | B2
3 | 300 to 800 | B3
4 | > 2000 | B4
5 | > 2000 | B5
6 | 150 to 300 | B6
7 | 800 to 2000 | B7
8 | 300 to 800 | B8
9 | 1 to 100 | B9
10 | 150 to 300 | B10
11 | 1 to 100 | B11
12 | 1 to 100 | B12
13 | 800 to 2000 | B13
14 | 1 to 100 | B14
15 | 800 to 2000 | B15
16 | 800 to 2000 | B16
17 | 100 to 150 | B17
18 | 150 to 300 | B18
19 | 100 to 150 | B19
20 | 300 to 800 | B20
21 | 800 to 2000 | B21
22 | 150 to 300 | B22
23 | 150 to 300 | B23

From patent publication US20140011732A1 (Novo Nordisk, published 2014)
